Data taken from US20200317768A1 (published 2020).

T1: human FcγRIIaH extracellular domain with C-terminal His-tag (human, UniProt P12318 34-217)
T1 construct: also called human FcgRIIaH; FcγRIIa (type H)
T1 sequence: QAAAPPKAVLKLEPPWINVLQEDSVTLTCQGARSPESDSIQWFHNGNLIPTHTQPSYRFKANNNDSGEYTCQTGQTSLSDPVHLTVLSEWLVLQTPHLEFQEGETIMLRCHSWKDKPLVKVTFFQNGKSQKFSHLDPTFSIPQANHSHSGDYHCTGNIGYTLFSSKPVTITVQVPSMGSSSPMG


target: T1, human FcγRIIaH extracellular domain …; assay: SPR (BIACORE); KD of SG1 / KD of variant;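 further: relative to parent M103205H795-SG1 carrying the SG1 human heavy chain constant region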

Binder	KD fold (SG1 = 1)
M103205H795-MY515/M103202L889-SK1 (antibody, human IgG1, kappa, Substitutions introduced into M103205H795-SG1, expressed with M103202L889-SK1 as light chain; EU numbering) heavy: QVTLKESGPVLVKPTETLTLTCTVSGIDLSHDDISWVRQAPGKGLEWVGIISYAGSTYYASWAKGRLTISKDTSKNQVVLTMTNMDPVDTATYYCARGVPAYSHGGDLWGQGTLVTVSSASTKGPSVFPLAPSSKSTSGGTAALGCLVKDYFPEPVTVSWNSGALTSGVHTFPAVLQSSGLYSLSSVVTVPSSSLGTQTYICNVNHKPSNTKVDKKVEPKSCDKTHTCPPCPAPELLTGPSVFLFPPKPKDTLMISRTPEVTCVVVDVSDEDPEVKFNWYVDGVEVHNAKTKPREELYNLTYRVVSVLTVLHQDWLNGKEYKCKVSNKALPKPIEKTISKAKGQPREPQVYTLPPSREEMTKNQVSLTCLVKGFYPSDIAVEWESNGQPENNYKTTPPVLDSDGSFFLYSKLTVDKSRWQQGNVFSCSVMHEALHNHYTQKSLSLSP light: DIVMTQSPATLSLSPGERATLSCTSSQSVYHANWLSWFQQKPGQPPKLLIYWASTLAYGVPSRFSGSGSGTDFTLTISSLQPEDAATYYCAGGYGGGRYAFGQGTKVEIKRTVAAPSVFIFPPSDEQLKSGTASVVCLLNNFYPREAKVQWKVDNALQSGNSQESVTEQDSKDSTYSLSSTLTLSKADYEKHKVYACEVTHQGLSSPVTKSFNRGEC	3.1 fold
M103205H795-MY388/M103202L889-SK1 (antibody, human IgG1, kappa, Substitutions introduced into M103205H795-SG1, expressed with M103202L889-SK1 as light chain; EU numbering) heavy: QVTLKESGPVLVKPTETLTLTCTVSGIDLSHDDISWVRQAPGKGLEWVGIISYAGSTYYASWAKGRLTISKDTSKNQVVLTMTNMDPVDTATYYCARGVPAYSHGGDLWGQGTLVTVSSASTKGPSVFPLAPSSKSTSGGTAALGCLVKDYFPEPVTVSWNSGALTSGVHTFPAVLQSSGLYSLSSVVTVPSSSLGTQTYICNVNHKPSNTKVDKKVEPKSCDKTHTCPPCPAPELLTGPIVFLFPPKPKDTLMISRTPEVTCVVVDVSDEDPEVKFNWYVDGVEVHNAKTKPREEQYNSTYRVVSVLTVLHQDWLNGKEYKCKVSNKALPKPIEKTISKAKGQPREPQVYTLPPSREEMTKNQVSLTCLVKGFYPSDIAVEWESNGQPENNYKTTPPVLDSDGSFFLYSKLTVDKSRWQQGNVFSCSVMHEALHNHYTQKSLSLSP light: DIVMTQSPATLSLSPGERATLSCTSSQSVYHANWLSWFQQKPGQPPKLLIYWASTLAYGVPSRFSGSGSGTDFTLTISSLQPEDAATYYCAGGYGGGRYAFGQGTKVEIKRTVAAPSVFIFPPSDEQLKSGTASVVCLLNNFYPREAKVQWKVDNALQSGNSQESVTEQDSKDSTYSLSSTLTLSKADYEKHKVYACEVTHQGLSSPVTKSFNRGEC	2.1 fold
M103205H795-MY392/M103202L889-SK1 (antibody, human IgG1, kappa, Substitutions introduced into M103205H795-SG1, expressed with M103202L889-SK1 as light chain; EU numbering) heavy: QVTLKESGPVLVKPTETLTLTCTVSGIDLSHDDISWVRQAPGKGLEWVGIISYAGSTYYASWAKGRLTISKDTSKNQVVLTMTNMDPVDTATYYCARGVPAYSHGGDLWGQGTLVTVSSASTKGPSVFPLAPSSKSTSGGTAALGCLVKDYFPEPVTVSWNSGALTSGVHTFPAVLQSSGLYSLSSVVTVPSSSLGTQTYICNVNHKPSNTKVDKKVEPKSCDKTHTCPPCPAPELLTGPSVFLFPPKPKDTLMISRTPEVTCVVVDVSDEDPEVKFNWYVDGVEVHNAKTKPREEQYNLTYRVVSVLTVLHQDWLNGKEYKCKVSNKALPKPIEKTISKAKGQPREPQVYTLPPSREEMTKNQVSLTCLVKGFYPSDIAVEWESNGQPENNYKTTPPVLDSDGSFFLYSKLTVDKSRWQQGNVFSCSVMHEALHNHYTQKSLSLSP light: DIVMTQSPATLSLSPGERATLSCTSSQSVYHANWLSWFQQKPGQPPKLLIYWASTLAYGVPSRFSGSGSGTDFTLTISSLQPEDAATYYCAGGYGGGRYAFGQGTKVEIKRTVAAPSVFIFPPSDEQLKSGTASVVCLLNNFYPREAKVQWKVDNALQSGNSQESVTEQDSKDSTYSLSSTLTLSKADYEKHKVYACEVTHQGLSSPVTKSFNRGEC	1.6 fold
M103205H795-MY389/M103202L889-SK1 (antibody, human IgG1, kappa, Substitutions introduced into M103205H795-SG1, expressed with M103202L889-SK1 as light chain; EU numbering) heavy: QVTLKESGPVLVKPTETLTLTCTVSGIDLSHDDISWVRQAPGKGLEWVGIISYAGSTYYASWAKGRLTISKDTSKNQVVLTMTNMDPVDTATYYCARGVPAYSHGGDLWGQGTLVTVSSASTKGPSVFPLAPSSKSTSGGTAALGCLVKDYFPEPVTVSWNSGALTSGVHTFPAVLQSSGLYSLSSVVTVPSSSLGTQTYICNVNHKPSNTKVDKKVEPKSCDKTHTCPPCPAPELLTGPLVFLFPPKPKDTLMISRTPEVTCVVVDVSDEDPEVKFNWYVDGVEVHNAKTKPREEQYNSTYRVVSVLTVLHQDWLNGKEYKCKVSNKALPKPIEKTISKAKGQPREPQVYTLPPSREEMTKNQVSLTCLVKGFYPSDIAVEWESNGQPENNYKTTPPVLDSDGSFFLYSKLTVDKSRWQQGNVFSCSVMHEALHNHYTQKSLSLSP light: DIVMTQSPATLSLSPGERATLSCTSSQSVYHANWLSWFQQKPGQPPKLLIYWASTLAYGVPSRFSGSGSGTDFTLTISSLQPEDAATYYCAGGYGGGRYAFGQGTKVEIKRTVAAPSVFIFPPSDEQLKSGTASVVCLLNNFYPREAKVQWKVDNALQSGNSQESVTEQDSKDSTYSLSSTLTLSKADYEKHKVYACEVTHQGLSSPVTKSFNRGEC	2.6 fold
M103205H795-MY514/M103202L889-SK1 (antibody, human IgG1, kappa, Substitutions introduced into M103205H795-SG1, expressed with M103202L889-SK1 as light chain; EU numbering) heavy: QVTLKESGPVLVKPTETLTLTCTVSGIDLSHDDISWVRQAPGKGLEWVGIISYAGSTYYASWAKGRLTISKDTSKNQVVLTMTNMDPVDTATYYCARGVPAYSHGGDLWGQGTLVTVSSASTKGPSVFPLAPSSKSTSGGTAALGCLVKDYFPEPVTVSWNSGALTSGVHTFPAVLQSSGLYSLSSVVTVPSSSLGTQTYICNVNHKPSNTKVDKKVEPKSCDKTHTCPPCPAPELLTGPVVFLFPPKPKDTLMISRTPEVTCVVVDVSDEDPEVKFNWYVDGVEVHNAKTKPREEQYNLTYRVVSVLTVLHQDWLNGKEYKCKVSNKALPKPIEKTISKAKGQPREPQVYTLPPSREEMTKNQVSLTCLVKGFYPSDIAVEWESNGQPENNYKTTPPVLDSDGSFFLYSKLTVDKSRWQQGNVFSCSVMHEALHNHYTQKSLSLSP light: DIVMTQSPATLSLSPGERATLSCTSSQSVYHANWLSWFQQKPGQPPKLLIYWASTLAYGVPSRFSGSGSGTDFTLTISSLQPEDAATYYCAGGYGGGRYAFGQGTKVEIKRTVAAPSVFIFPPSDEQLKSGTASVVCLLNNFYPREAKVQWKVDNALQSGNSQESVTEQDSKDSTYSLSSTLTLSKADYEKHKVYACEVTHQGLSSPVTKSFNRGEC	2 fold

The remaining lines, values ahead:

KD fold (SG1 = 1)	Binder
2.5 fold	M103205H795-MY387/M103202L889-SK1 (antibody, human IgG1, kappa, Substitutions introduced into M103205H795-SG1, expressed with M103202L889-SK1 as light chain; EU numbering) heavy: QVTLKESGPVLVKPTETLTLTCTVSGIDLSHDDISWVRQAPGKGLEWVGIISYAGSTYYASWAKGRLTISKDTSKNQVVLTMTNMDPVDTATYYCARGVPAYSHGGDLWGQGTLVTVSSASTKGPSVFPLAPSSKSTSGGTAALGCLVKDYFPEPVTVSWNSGALTSGVHTFPAVLQSSGLYSLSSVVTVPSSSLGTQTYICNVNHKPSNTKVDKKVEPKSCDKTHTCPPCPAPELLTGPVVFLFPPKPKDTLMISRTPEVTCVVVDVSDEDPEVKFNWYVDGVEVHNAKTKPREEQYNSTYRVVSVLTVLHQDWLNGKEYKCKVSNKALPKPIEKTISKAKGQPREPQVYTLPPSREEMTKNQVSLTCLVKGFYPSDIAVEWESNGQPENNYKTTPPVLDSDGSFFLYSKLTVDKSRWQQGNVFSCSVMHEALHNHYTQKSLSLSP light: DIVMTQSPATLSLSPGERATLSCTSSQSVYHANWLSWFQQKPGQPPKLLIYWASTLAYGVPSRFSGSGSGTDFTLTISSLQPEDAATYYCAGGYGGGRYAFGQGTKVEIKRTVAAPSVFIFPPSDEQLKSGTASVVCLLNNFYPREAKVQWKVDNALQSGNSQESVTEQDSKDSTYSLSSTLTLSKADYEKHKVYACEVTHQGLSSPVTKSFNRGEC
3.1 fold	M103205H795-MY516/M103202L889-SK1 (antibody, human IgG1, kappa, Substitutions introduced into M103205H795-SG1, expressed with M103202L889-SK1 as light chain; EU numbering) heavy: QVTLKESGPVLVKPTETLTLTCTVSGIDLSHDDISWVRQAPGKGLEWVGIISYAGSTYYASWAKGRLTISKDTSKNQVVLTMTNMDPVDTATYYCARGVPAYSHGGDLWGQGTLVTVSSASTKGPSVFPLAPSSKSTSGGTAALGCLVKDYFPEPVTVSWNSGALTSGVHTFPAVLQSSGLYSLSSVVTVPSSSLGTQTYICNVNHKPSNTKVDKKVEPKSCDKTHTCPPCPAPELLTGPVVFLFPPKPKDTLMISRTPEVTCVVVDVSDEDPEVKFNWYVDGVEVHNAKTKPREELYNLTYRVVSVLTVLHQDWLNGKEYKCKVSNKALPKPIEKTISKAKGQPREPQVYTLPPSREEMTKNQVSLTCLVKGFYPSDIAVEWESNGQPENNYKTTPPVLDSDGSFFLYSKLTVDKSRWQQGNVFSCSVMHEALHNHYTQKSLSLSP light: DIVMTQSPATLSLSPGERATLSCTSSQSVYHANWLSWFQQKPGQPPKLLIYWASTLAYGVPSRFSGSGSGTDFTLTISSLQPEDAATYYCAGGYGGGRYAFGQGTKVEIKRTVAAPSVFIFPPSDEQLKSGTASVVCLLNNFYPREAKVQWKVDNALQSGNSQESVTEQDSKDSTYSLSSTLTLSKADYEKHKVYACEVTHQGLSSPVTKSFNRGEC
1.6 fold	M103205H795-MY400/M103202L889-SK1 (antibody, human IgG1, kappa, Substitutions introduced into M103205H795-SG1, expressed with M103202L889-SK1 as light chain; EU numbering) heavy: QVTLKESGPVLVKPTETLTLTCTVSGIDLSHDDISWVRQAPGKGLEWVGIISYAGSTYYASWAKGRLTISKDTSKNQVVLTMTNMDPVDTATYYCARGVPAYSHGGDLWGQGTLVTVSSASTKGPSVFPLAPSSKSTSGGTAALGCLVKDYFPEPVTVSWNSGALTSGVHTFPAVLQSSGLYSLSSVVTVPSSSLGTQTYICNVNHKPSNTKVDKKVEPKSCDKTHTCPPCPAPELLTGPSVFLFPPKPKDTLMISRTPEVTCVVVDVSDEDPEVKFNWYVDGVEVHNAKTKPREEQYNSTYRVVSVLTVLHQDWLNGKEYKCKVSNKALPKEIEKTISKAKGQPREPQVYTLPPSREEMTKNQVSLTCLVKGFYPSDIAVEWESNGQPENNYKTTPPVLDSDGSFFLYSKLTVDKSRWQQGNVFSCSVMHEALHNHYTQKSLSLSP light: DIVMTQSPATLSLSPGERATLSCTSSQSVYHANWLSWFQQKPGQPPKLLIYWASTLAYGVPSRFSGSGSGTDFTLTISSLQPEDAATYYCAGGYGGGRYAFGQGTKVEIKRTVAAPSVFIFPPSDEQLKSGTASVVCLLNNFYPREAKVQWKVDNALQSGNSQESVTEQDSKDSTYSLSSTLTLSKADYEKHKVYACEVTHQGLSSPVTKSFNRGEC
